From paper PMC4556617, “Experimental Evidence for a Revision in the Annotation of Putative Pyridoxamine 5'-Phosphate Oxidases P(N/M)P from Fungi” (PLoS ONE, 2015)

T1: Pdx3 (Saccharomyces cerevisiae, UniProt P38075)
T1 construct: full-length, synthetic gene in pET28a (NdeI/BamHI), N-terminal His-tag cut by thrombin; E. coli BL21 DE3 Rosetta; 27189 Da; homodimer
T1 sequence (P38075 1-228): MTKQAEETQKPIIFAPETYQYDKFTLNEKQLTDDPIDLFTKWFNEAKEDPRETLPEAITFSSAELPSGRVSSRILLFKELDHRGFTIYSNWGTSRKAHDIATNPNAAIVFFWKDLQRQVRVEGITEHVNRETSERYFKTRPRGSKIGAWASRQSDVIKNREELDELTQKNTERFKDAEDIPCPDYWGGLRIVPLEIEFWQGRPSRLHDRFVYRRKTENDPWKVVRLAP

B1: Ypr172w (natural protein, S. cerevisiae, UniProt Q06608 1-200, looked up)
chain: MAWTSTLPAHLLNLIKNSKYVHVATCSKDCIPSVALMNYIYVPGEKLFGQTDNKNDYIIFVSPQDTQKFYNIKENPKVALLFHDWIIANNLSVGKESISGTPTPTSIPHEEQRQSELLNLLQELNQAELNQMSASIGGETEIVNPESEESKYYKDLILKANPDAKAFIFEKNTAVVKVRIDNARVSNNENRTMFLSKGKS
notes: expected mass after thrombin digestion 22788 Da; A few residues of the vector probably remain after thrombin cleavage (surmised); also called putative P(N/M)P oxidase; source: E. coli BL21 DE3 Rosetta, purified (His Trap HP, thrombin digestion, Superdex 200 gel filtration); not shown: His-tag, N-terminal, cleaved
B2: Ylr456w (natural protein, S. cerevisiae, UniProt Q06199 1-204, looked up)
chain: MKLNEQIPKDLLRLIKSSKYVHVATCSSNCIPSVSLMHYIFVSSAETFHKHEYSIEIDCNDYIIFTVFEKSVTFRNVMSNPNVALLFHDWITAKNLTLRKKSVHSKDDFSFVESESTKFNNFLRDLNQSELNQVSATINGIADIVNPNSEESTYYRRLLLTVNPDADIFILGEDTAIIKVNIQKIKVSDMENNTSTYGQTVQPV
notes: Ylr456w, product of the ORF YLR456W of S. cerevisiae (strain BY4741 cDNA), amplified with primers from the ATG to the stop codon, cloned NdeI/BamHI into pET28a; expected mass after thrombin digestion 23574 Da; A few residues of the vector probably remain at the N-terminus after thrombin cleavage (surmised); also called putative P(N/M)P oxidase; source: E. coli BL21 DE3 Rosetta, purified (His Trap …)
B3: Pdx3 (enzyme, S. cerevisiae, UniProt P38075 1-228, looked up)
chain: T1 sequence (P38075 1-228)
notes: expected mass after thrombin digestion 27189 Da; A few residues of the vector probably remain after thrombin cleavage (surmised); also called P(N/M)P oxidase; pyridoxamine 5'-phosphate oxidase; source: E. coli BL21 DE3 Rosetta, purified (His Trap HP, thrombin digestion, Superdex 200 gel filtration); not shown: His-tag, N-terminal, cleaved

Columns and labels:
[1] = molecular target: T1, Pdx3; test: FMN fluorescence quenching titration (Ex […] nm, Em […] nm); size-exclusion chromatography co-elution; type: binding; settings: 1 uM FMN titrated with protein, 25 C, pH 7.4; protein as purified already carries FMN
[2] = molecular target: the molecule itself; test: SEC; analytical size-exclusion chromatography, Superdex 75 3.3/300, 10 uM protein, 10 uL injected, buffer A (20 mM Tris, 150 mM NaCl, 1 mM DTT pH 7.4), tryptophan fluorescence; calibrated with transthyretin tetramers (54 kDa) and chymotrypsin monomers (25 kDa)

Molecule	FMN fluorescence quenching titration (Ex 450 nm, Em 520 nm); size-exclusion chro [1]	stoichiometry N [2]
Cc1cc2nc3c(=O)[nH]c(=O)nc-3n(C[C@H](O)[C@H](O)[C@H](O)COP(=O)(O)O)c2cc1C [FMN]	Pdx3 produced a clear quenching effect due to FMN binding	–
B1	–	2
B2	–	2
B3	–	2
